Measured values published in publication PMC4015496 (Genes & Development, 2014).

Tests used:
[1] = target: the molecule itself; experiment: SEC
[2] = target: T1, CTCFwt, full length, GST tag removed (human), P49711; experiment: SEC; details: remark: other sources report otherwise
T1 chain: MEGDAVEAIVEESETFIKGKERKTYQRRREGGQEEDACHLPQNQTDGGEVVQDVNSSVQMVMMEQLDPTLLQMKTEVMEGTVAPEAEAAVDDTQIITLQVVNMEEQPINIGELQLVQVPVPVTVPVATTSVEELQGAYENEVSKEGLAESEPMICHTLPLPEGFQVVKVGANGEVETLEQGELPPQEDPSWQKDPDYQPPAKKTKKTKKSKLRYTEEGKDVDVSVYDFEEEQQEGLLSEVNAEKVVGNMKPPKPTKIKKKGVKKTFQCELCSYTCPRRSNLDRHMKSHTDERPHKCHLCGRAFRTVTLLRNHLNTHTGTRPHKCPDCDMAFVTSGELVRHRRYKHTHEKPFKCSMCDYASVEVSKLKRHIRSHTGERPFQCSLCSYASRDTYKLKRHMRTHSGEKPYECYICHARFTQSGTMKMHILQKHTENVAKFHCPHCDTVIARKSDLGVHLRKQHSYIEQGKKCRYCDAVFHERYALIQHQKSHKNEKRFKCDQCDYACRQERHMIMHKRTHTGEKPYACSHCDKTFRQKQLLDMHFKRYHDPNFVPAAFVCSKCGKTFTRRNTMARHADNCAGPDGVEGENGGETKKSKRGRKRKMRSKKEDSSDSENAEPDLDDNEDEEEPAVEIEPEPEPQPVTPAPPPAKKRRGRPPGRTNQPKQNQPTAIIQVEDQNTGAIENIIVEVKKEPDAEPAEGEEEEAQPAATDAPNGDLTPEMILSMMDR

B1: RBR fragment of CTCF (purified, used in gel filtration) (domain or fragment, human, UniProt P49711 520-727, looked up)
chain: EKPYACSHCDKTFRQKQLLDMHFKRYHDPNFVPAAFVCSKCGKTFTRRNTMARHADNCAGPDGVEGENGGETKKSKRGRKRKMRSKKEDSSDSENAEPDLDDNEDEEEPAVEIEPEPEPQPVTPAPPPAKKRRGRPPGRTNQPKQNQPTAIIQVEDQNTGAIENIIVEVKKEPDAEPAEGEEEEAQPAATDAPNGDLTPEMILSMMDR
[1]
  binding result: binds

B2: CTCFwt, full length, GST tag removed, P49711 1-727 (natural protein)
chain: T1 chain
[2]
  stoichiometry N: 3
